The source of these data is PMC9730451.

The target of the experiment is MGAT1 (GnT1) (UniProt P26572). The experiment in a line: co-immunoprecipitation, western blot. Conditions: reference: wild type, mitotic; sites S12.

“MAN1A1 (Golgi α-1,2-mannosidase IA) (from UniProt P33908) S12A, mitotic”: the “binding against the reference” value was “stronger”.
